Sequences and labels used below:
B1: SETD8 (parent)
chain: KKAQGKTQQNRKLTDFYPVRRSSR

This note sets out measurements from the supplement of paper PMC10567573.
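Further: lentivirally expressed fusions sorted by FACS into six bins by GFP to DsRed ratio, PSI derived from sequencing read proportions per bin multiplied by bin number.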

Variants of B1 are the subject of this data set. The data set can be described thus: protein stability index of a GFP-peptide fusion (GPS, HEK-293T) (PSI 1-6); higher = more stable. As to conditions: c terminus: a fixed tail appended.
Regarding KKAQGKTQQNRKLTDFCPVRRSSR [Y17C], the protein stability index worked out at 3.58. As to KKAQGKTQQNRKLTDFPPVRRSSR [Y17P], the protein stability index was determined as 5.8. The result for KKAQGKTQQNRKLTDFWPVRRSSR [Y17W] reads 1.41; that for KKAQGKTQQNRKLTDFMPVRRSSR [Y17M], 3.05; that for KKAQGKTQSNRKLTDFYPVRRSSR [Q9S], 2.36. The result for KKAQGKTQHNRKLTDFYPVRRSSR [Q9H] reads 4.29.

Turning to KKAQGKTQGNRKLTDFYPVRRSSR [Q9G], the protein stability index turned out to be 1.89.

In the case of KKAQGKTQKNRKLTDFYPVRRSSR [Q9K], the protein stability index turned out to be 3.66.

As for KKAQGKTQRNRKLTDFYPVRRSSR [Q9R], the protein stability index was 2.67. For KKAQGKTQMNRKLTDFYPVRRSSR [Q9M] the value was 2.25. The result for KKALGKTQQNRKLTDFYPVRRSSR [Q4L] reads 3.69. Regarding KKASGKTQQNRKLTDFYPVRRSSR [Q4S], the protein stability index worked out at 1.13.

KKAHGKTQQNRKLTDFYPVRRSSR [Q4H]: the protein stability index turned out to be 2.73.

As to KKACGKTQQNRKLTDFYPVRRSSR [Q4C], the protein stability index amounted to 1.64.

Consider KKAQGKRQQNRKLTDFYPVRRSSR [T7R], for which the protein stability index was determined as 3.38. For KKAQGKWQQNRKLTDFYPVRRSSR [T7W] the value was 2.88; for KKAQGKNQQNRKLTDFYPVRRSSR [T7N], 3.33; for KKAQGKFQQNRKLTDFYPVRRSSR [T7F], 1.95. The result for KKAQGKEQQNRKLTDFYPVRRSSR [T7E] reads 2.9. For KKAQGFTQQNRKLTDFYPVRRSSR [K6F] the value was 2.16; for KKAQGMTQQNRKLTDFYPVRRSSR [K6M], 1.62; for KKAQGSTQQNRKLTDFYPVRRSSR [K6S], 1.73.

On to KKAQGVTQQNRKLTDFYPVRRSSR [K6V], for which the protein stability index was found to be 2.25. On to KKAQGKTQQNRKLTDFYPVWRSSR [R20W], for which the protein stability index was 3.22. With KKAQGKTQQNRKLTDFYPVFRSSR [R20F], the protein stability index was 2.63. The result for KKAQGKTQQNRKLTDFYPVMRSSR [R20M] reads 2.94; that for KKAQGKTQQNRKLTDFYPVSRSSR [R20S], 2. The result for KKAQGKTQQNRKLTDFYMVRRSSR [P18M] reads 3.82; that for KKAQGKTQQNRKLTDFYIVRRSSR [P18I], 2.66; that for KKAQGKTQQNRKLTDFYAVRRSSR [P18A], 3.16.

With KKAQGKTQQNRKLTDFYDVRRSSR [P18D], the protein stability index was determined as 3.38. For KKAQGKTQQNRKLTDFYLVRRSSR [P18L] the value was 3.36; for KKAQGKTQQNRKLTDFYNVRRSSR [P18N], 1.86. For KKAQGKTQQLRKLTDFYPVRRSSR [N10L] the value was 2.39; for KKAQGKTQQGRKLTDFYPVRRSSR [N10G], 1.42; for KKAQGKTQQSRKLTDFYPVRRSSR [N10S], 2.35. KKAQGKTQQHRKLTDFYPVRRSSR [N10H]: the protein stability index was determined as 3.49. As for KKAQGKTQQDRKLTDFYPVRRSSR [N10D], the protein stability index is 4.38.

As for KKAQGKTQQNRKLTAFYPVRRSSR [D15A], the protein stability index came out at 2.85. The result for KKAQGKTQQNRKLTYFYPVRRSSR [D15Y] reads 2.77; that for KKAQGKTQQNRKLTMFYPVRRSSR [D15M], 2.43; that for KKAQGKTQQNRKLTEFYPVRRSSR [D15E], 4.29.

Turning to KKAQGKTQQNRKLTCFYPVRRSSR [D15C], the protein stability index is 2.52. The result for NKAQGKTQQNRKLTDFYPVRRSSR [K1N] reads 2.13. In the case of SKAQGKTQQNRKLTDFYPVRRSSR [K1S], the protein stability index amounted to 2.88. As for KKAQSKTQQNRKLTDFYPVRRSSR [G5S], the protein stability index was determined as 2.62.

Turning to KKAQLKTQQNRKLTDFYPVRRSSR [G5L], the protein stability index is 2.77.

In the case of KKAQIKTQQNRKLTDFYPVRRSSR [G5I], the protein stability index is 1.68. Take KKAQHKTQQNRKLTDFYPVRRSSR [G5H]: the protein stability index is 1.83. Regarding KKAQYKTQQNRKLTDFYPVRRSSR [G5Y], the protein stability index came to 2.92. For KKAQVKTQQNRKLTDFYPVRRSSR [G5V] the value was 2.65; for KKAQGKTQQNRKQTDFYPVRRSSR [L13Q], 3.79.

Take KKAQGKTQQNRKVTDFYPVRRSSR [L13V]: the protein stability index stood at 2.79. The result for KKAQGKTQQNRKTTDFYPVRRSSR [L13T] reads 3.51. For KKAQGKTQQNRKCTDFYPVRRSSR [L13C] the value was 4.07. Turning to KKAQGKTQQNRKATDFYPVRRSSR [L13A], the protein stability index was determined as 2.67. For the variant KKAQGKTQQNRKHTDFYPVRRSSR [L13H], the protein stability index is 3.83.

Take KKAQGKTQQNRKPTDFYPVRRSSR [L13P]: the protein stability index worked out at 3.64. Turning to KKAQGKTQQNRKGTDFYPVRRSSR [L13G], the protein stability index amounted to 3.42. The result for KKAQGKTQQNRKDTDFYPVRRSSR [L13D] reads 4.69; that for KKAQGKTQQNRKLTDMYPVRRSSR [F16M], 3.81. For KKAQGKTQQNRKLTDFYPVRRSLR [S23L], the protein stability index is 4.44. As for KKAQGKTQQNRKLTDFYPVRRSYR [S23Y], the protein stability index was determined as 3.04.

For the variant KKAQGKTQQNRKLTDFYPVRRSPR [S23P], the protein stability index is 2.65. The result for KKAQGKTQQNRKLTDFYPVRRSDR [S23D] reads 3.09.

With KKAQGKTQQNRKLTDFYPVRRSRR [S23R], the protein stability index turned out to be 2.16.

As for KKAQGKTQQNRKLTDFYPVRRSKR [S23K], the protein stability index is 4.11.

Take KKAQGKTQQNRKLTDFYPVRRSHR [S23H]: the protein stability index was determined as 2.7. The result for KKAQGKTQQNRKLTDFYPVRRSMR [S23M] reads 3.18; that for KKAQGKTQQNRKLTDFYPVRKSSR [R21K], 2.66. Take KKAQGKTQQNRKLTDFYPVRWSSR [R21W]: the protein stability index worked out at 2.57.

For KKAQGKTQQNRKLTDFYPVRTSSR [R21T], the protein stability index stood at 2.23. For KKAQGKTQQNRKLTDFYPVRRASR [S22A] the value was 2.92; for KKAQGKTQQNRKLTDFYPVRRYSR [S22Y], 3.06; for KKAQGKTQQNRKLTDFYPVRRQSR [S22Q], 2.37. For KKAQGKTQQNRVLTDFYPVRRSSR [K12V] the value was 2.32; for KKAQGKTQQNRNLTDFYPVRRSSR [K12N], 2.81. For KKAQGKTQQNRFLTDFYPVRRSSR [K12F] the value was 1.93. On to KKAQGKTQQNRLLTDFYPVRRSSR [K12L], for which the protein stability index turned out to be 3.41.

Consider KKAQGKTQQNRRLTDFYPVRRSSR [K12R], for which the protein stability index is 1.86. For KKAQGKTQQNRELTDFYPVRRSSR [K12E] the value was 3.35; for KKAQGKTQQNRGLTDFYPVRRSSR [K12G], 2.76; for KKAQGKTRQNRKLTDFYPVRRSSR [Q8R], 2.39.

On to KKAQGKTCQNRKLTDFYPVRRSSR [Q8C], for which the protein stability index stood at 3.34. The result for KKAQGKTFQNRKLTDFYPVRRSSR [Q8F] reads 3.67; that for KKAQGKTDQNRKLTDFYPVRRSSR [Q8D], 3.23; that for KKAQGKTVQNRKLTDFYPVRRSSR [Q8V], 3.2. As for KKAQGKTHQNRKLTDFYPVRRSSR [Q8H], the protein stability index was found to be 2.59.

For the variant KKAQGKTNQNRKLTDFYPVRRSSR [Q8N], the protein stability index was found to be 2.89. Take KKAQGKTGQNRKLTDFYPVRRSSR [Q8G]: the protein stability index was 2.28. For KKAQGKTMQNRKLTDFYPVRRSSR [Q8M] the value was 1.89. The result for KKAQGKTQQNRKLTDFYPVRRSSH [R24H] reads 2.54; that for KKAQGKTQQNRKLTDFYPVRRSSF [R24F], 2.57; that for KKAQGKTQQNRKLTDFYPVRRSSQ [R24Q], 1.06.
